Assay results: PMC5356828

How the values were obtained:
[1] = target: P-glycoprotein (human (endogenous in primary skin fibroblasts)) (UniProt P08183); experiment: co-IP; lysates of hypertrophic scar fibroblasts (HF) treated with latrunculin-A (0.2 μM) or DMSO for 12 h; IP with anti-P-glycoprotein or anti-MRP1 antibody, immunoblot for actin
[2] = target: multidrug resistance-associated protein 1 (human (endogenous in primary skin fibroblasts)) (UniProt P33527); experiment: as above

Q: What does the source list for “actin (from UniProt P60709 1-375) (natural protein)”?
A: percent loss of the co-precipitate after latrunculin-A [1]: 90%; percent loss of the co-precipitate after latrunculin-A [2]: 70%
